Results taken from patent publication US8669352 (PANGENETICS B V, dated 2014).
Values joined by “and” are separate entries in the source; they are usually repeats but may differ in a detail not shown here. Identical values can stand only once.

Key:
[1] = molecular target: T1, Recombinant human CD40 extracellular domain fused to human IgG1-Fc domain (huCD40-Fc; R&D Systems 149-CD-50) (human, UniProt P25942 21-193); experiment: SPR (Biacore 3000), immobilised huCD40-Fc, bivalent analyte model; the text value differs from the table's 5.29 × 10^-9 M; bivalent analyte model, not Langmuir
T1 construct: extracellular domain; Bought reagent; also called human CD40-Fc; not shown: human IgG1-Fc domain
Experimental: (§1) The kinetics of ch5D12 (PG100) and PG102 (I29L variant) binding to human CD40 were compared by surface plasmon resonance at a constant temperature of 25.0° C., using a Biacore 3000 instrument. Recombinant human CD40 extracellular domain fused to human IgG1-Fc domain (huCD40-Fc; R&D Systems catalogue number 149-CD-50) was used as the target antigen in these experiments. HuCD40-Fc (1 µg/mL in 10 mM acetate buffer, pH 5.0) was coupled via the amine groups of Lys residues to carbodiimide-activated Biacore CM5 chips, resulting in an antigen immobilization level of 127.4 RU. For kinetic analyses, dilution series of ch5D12 (PG100) and PG102 (range 10.0 µg/mL to 0.313 µg/mL) were prepared in Biacore Running Buffer (HEPES-buffered saline containing EDTA and surfactant; HBS-EP). Kinetic analyses were performed at a flow rate of 30 µL/min. Samples were allowed to bind for 4 min and to dissociate for 5 min, at the same flow rate. The chip surface was then regenerated for 30 seconds using 30 mM NaOH and a baseline re-established in HBS-EP for 2.5 min before injection of the next sample. […]
(§2) BIAcore control software (Version 3.2) was used for data collection and BIAevaluation software (Version 4.1) was used for analysis of kinetic data. Binding parameters were calculated using two different models of molecular interaction: a bivalent analyte model and Langmuir 1:1 binding model.

[2] = molecular target: T2, huCD40-muIg (Ancell, catalogue number 504-020) (human, UniProt P25942 21-193); experiment: ELISA on coated human CD40-Fc; half-maximal binding concentration
T2 construct: also called CD40-Fc; human CD40-Fc; not shown: murine Ig part
Experimental: (§3) Plates were washed 3 times with 200 μL/well wash buffer (0.05% Tween-20 in PBS). Subsequently, plates were blocked with 200 μL/well blocking buffer (5% BSA Fraction V [Roche, catalogue number 735094] in wash buffer) and incubated for 1 h at 37° C. (humid environment). Plates were washed 3 times with wash buffer. Test antibodies (ch5D12 (PG100), PG102, and negative control chimaeric anti-huCD86 antibody chFUN-1) were diluted in the range 0-1200 ng/mL in blocking buffer and transferred to assay plates in a final volume of 100 μL/well, followed by incubation for 1 h at 37° C. (humid environment). Plates were washed 3 times with wash buffer followed by addition of 100 μl/well goat anti-human kappa-AP detection antibody (Southern Biotech Associates catalogue number 2060-0) diluted 1:1000 in blocking buffer. Plates were incubated for 1 h at 37° C. in a humid environment before washing 3 times with wash buffer and a further single wash with PBS.

[3] = molecular target: T2, huCD40-muIg (Ancell, catalogue number …); experiment: ELISA on coated human CD40-Fc (huCD40-muIg per methods); n=4
Experimental: as §3, with “Plates were incubated for 1 h at 37° C. in a humid environment before washing 3 times with wash buffer and a further single wash with PBS.” left out
PNP substrate was prepared by adding 1 tablet p-Nitrophenyl Phosphate tablets (Sigma, catalogue number N-2765) in 15 mL PNP substrate buffer (12.1 g Tris, 5.84 g NaCl, 1.02 g MgCl_2.6H_2O in 1 L H_2O (adjusted to pH 9.6 with HCl). PNP substrate was added to assay plates at 100 μL/well. Plates were incubated for several minutes (max 30 min) at 37° C. to allow colour development before the reaction was stopped by addition of 3M NaOH. Colour intensity was determined at 405 nm using a micro plate reader (Biorad, model 550).

[4] = molecular target: T3, human CD40 (human, UniProt P25942 21-277); experiment: flow cytometry competition on JY cells against 1 µg/mL PE-labelled ch5D12 (PG100) or PG102; range told of both antibodies
T3 construct: whole, on cells; also called huCD40; CD40 expressed on JY cells
Experimental: (§4) Competitive Inhibition of ch5D12 (PG100)-PE and PG102-PE Binding to JY Cells Expressing Human CD40 Using Unlabelled Anti-CD40 Antibody Materials and Methods JY cells (Epstein—Barr virus-transformed human B lymphoblastoid cell line) were grown in Iscove's Modified Dulbecco's Medium (IMDM) containing 10% heat-inactivated foetal calf serum (FCS), 2 mM L-glutamine and 50 μg/mL gentamycin in an air-humidified atmosphere containing 5% CO_2, at 37° C. Cells were harvested on the day of flow cytometric measurements.
(§5) Unlabelled ch5D12 (PG100) (Batch 4) and PG102 (Batch 2) antibodies were used in these experiments. Both antibodies were also used in PE-labelled form for direct determination of binding to JY cells by flow cytometry. Antibodies were custom-labelled with PE by AbD Serotec (Oxford, UK). For each FACS analysis the following protocol was used. JY cells were harvested from cell culture and counted. […] Cells were washed followed by flow cytometric analysis in which the MFI at every concentration was determined using a FACScan flow cyometer (Becton & Dickinson). Five thousand events/sample were measured and analyzed using CellQuest® software (Becton & Dickinson).

[5] = molecular target: T1, Recombinant human CD40 extracellular …; experiment: SPR (Biacore 3000), immobilised huCD40-Fc, Langmuir (1:1) model, ka
Experimental: as §1, §2

[6] = molecular target: T1, Recombinant human CD40 extracellular …; experiment: SPR (Biacore 3000), immobilised huCD40-Fc, bivalent binding (1:2) model, ka1
Experimental: as §1, §2

[7] = molecular target: T3, human CD40; experiment: flow cytometry on JY cells; competitor 1 µg/mL PG102-PE; n=4
Experimental: as §4, §5

[8] = molecular target: T3, human CD40; experiment: flow cytometry on JY cells; competitor 1 µg/mL ch5D12 (PG100)-PE; n=4
Experimental: as §4, §5

[9] = molecular target: T1, Recombinant human CD40 extracellular …; experiment: SPR (Biacore 3000), immobilised huCD40-Fc, bivalent binding (1:2) model, kd1
Experimental: as §1, §2

[10] = molecular target: T1, Recombinant human CD40 extracellular …; experiment: SPR (Biacore 3000), immobilised huCD40-Fc, bivalent binding (1:2) model
Experimental: as §1, §2

[11] = molecular target: T1, Recombinant human CD40 extracellular …; experiment: SPR (Biacore 3000), immobilised huCD40-Fc, Langmuir (1:1) model
Experimental: as §1, §2

[12] = molecular target: T3, human CD40; experiment: cell-based or functional assay
[13] = molecular target: T1, Recombinant human CD40 extracellular …; experiment: SPR (Biacore 3000), immobilised huCD40-Fc, Langmuir (1:1) model, kd
Experimental: as §1, §2

T1 sequence (P25942 21-193): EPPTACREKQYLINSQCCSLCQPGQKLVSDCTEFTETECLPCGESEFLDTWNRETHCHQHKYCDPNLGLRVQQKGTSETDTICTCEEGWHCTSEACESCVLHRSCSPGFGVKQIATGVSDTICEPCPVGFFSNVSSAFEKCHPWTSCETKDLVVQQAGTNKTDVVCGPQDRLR
T3 sequence (P25942 21-277): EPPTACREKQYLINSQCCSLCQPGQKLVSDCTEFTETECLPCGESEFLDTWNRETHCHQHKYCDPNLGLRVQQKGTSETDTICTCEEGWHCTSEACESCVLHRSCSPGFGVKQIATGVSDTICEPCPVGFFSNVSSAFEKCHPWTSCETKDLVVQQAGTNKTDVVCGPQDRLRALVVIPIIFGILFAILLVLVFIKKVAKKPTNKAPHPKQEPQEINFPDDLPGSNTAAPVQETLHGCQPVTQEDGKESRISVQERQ
T2 sequence (P25942 21-193): as the sequence (P25942 21-193) above

Kd [1]: 5.25 nM
EC50 [2]: ~0.03 mg/L
-log half-maximal binding concentration [3]: 7.54 -log10 of g/ml (per caption: 7.45 ~ 35 ng/ml)
kon [5]: 1.88e+06 M⁻¹ s⁻¹
kon [6]: 641000 M⁻¹ s⁻¹
-log IC50 [7]: 7.54 -log10 of g/mL (per p-0205: ~20-30 ng/mL)
-log IC50 [8]: 7.5 -log10 of g/mL (per p-0205: ~20-30 ng/mL)
koff [9]: 0.0016 s⁻¹
Kd [10]: 5.29 nM
Kd [11]: 0.271 nM
-log IC50 for inhibition of IL-8 release by IFN-gamma-pulsed THP-1 cells co-cultured with Jurkat 39.8/50 cells [12]: 8.28 -log10 (unit not printed)
koff [13]: 0.000507 s⁻¹
B1: ch5D12 (PG100) (antibody, V domains shown)
VH: QVKLEESGPGLVAPSQSLSITCTVSGFSLSRYSVYWVRQPPGKGLEWLGMMWGGGSTDYNSALKSRLSISKDTSKSQVFLKMNSLRTDDTAMYYCVRTDGDYWGQGTSVTVSS
VL: ELQLTQSPLSLPVSLGDQASISCRSSQSLVNSNGNTYLHWYLQKPGQSPKLLIYKVSNRFSGVPDRFSGSGSGTDFTLKISRVEAEDLGVYFCSQSTHVPWTFGGGTKLEIKR
notes: also called chimeric 5D12
IC50 [4]: 0.02 µg/mL to 0.03 µg/mL (2×) and 0.13 nM to 0.2 nM (2×)
